In patent publication US20130202591A1 (ANAPTYSBIO, published 2013):

B1: MP4-9 (antibody, V domains shown)
VH: EVQLVESGGGLVQPGGSLRLSCAASGFTFSNYWMSWVRQAPGKGLEWVAAIKQDGSEKYYVDSVKGRFTISRDNAKNSLYLQMNSLRAEDTAVYYCARDYYDILTDYYIHYWYFDLWGRGTLVTVSS
VL: not shown
notes: Captured by anti-human Fc
B2: 846/773 (antibody, V domains shown)
VH: EVQLVESGGGLVQPGGSLRLSCAASGFTFSNSWMTWVRQAPGKGLEWVASINHDGSEKHYVGSVKGRFTISRDNAKNSLYLQMNSLRVEDTAVYYCARDYYDILTDYYIHYWYFDLWGRGTLVTVSS
VL: not shown
notes: Captured by anti-human Fc
B3: 847/772 (antibody, V domains shown)
VH: EVQLVESGGGLVQPGGSLRLSCAASGFTFSSHWMSWVRQAPGKGLEWVASIKEDGSEKYYVDSVKGRFTISRDNAKNSLYLQMNSLRAEDTAVYYCARDYYDILTDYYIHYWYFDLWGRGTLVTVSS
VL: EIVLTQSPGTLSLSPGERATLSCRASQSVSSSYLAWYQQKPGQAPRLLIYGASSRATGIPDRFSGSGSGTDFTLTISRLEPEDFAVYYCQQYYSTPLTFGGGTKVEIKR
notes: Captured by anti-human Fc
B4: 878/772 (antibody, V domains shown)
VH: EVQLVESGGGLVQPGGSLRLSCAASGFTFSDYWMDWVRQAPGKGLEWVANIREDGSEKYYVDSVKGRFTISRDNAKNSLYLQMNSLRAEDTAVYYCARDYYDILTDYYIHYWYFDLWGRGTLVTVSS
VL: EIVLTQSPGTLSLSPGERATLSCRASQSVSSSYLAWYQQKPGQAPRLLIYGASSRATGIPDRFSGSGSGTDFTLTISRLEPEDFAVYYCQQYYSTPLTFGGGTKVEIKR
notes: Captured by anti-human Fc
B5: 887/772 (antibody, V domains shown)
VH: EVQLVESGGGLVQPGGSLRLSCAASGFTFSDYWMDWVRQAPGKGLEWVASIREDGSEKYYVDSVKGRFTISRDNAKNSLYLQMNSLRAEDTAVYYCARDYYDILTDYYIHYWYFDLWGRGTLVTVSS
VL: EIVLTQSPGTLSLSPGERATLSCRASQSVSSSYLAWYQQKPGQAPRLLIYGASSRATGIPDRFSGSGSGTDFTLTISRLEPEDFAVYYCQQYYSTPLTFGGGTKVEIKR
notes: Captured by anti-human Fc
B6: 1102/773 (antibody, V domains shown)
VH: EVQLVESGGGLVQPGGSLRLSCAASGFTFSSYWMDWVRQAPGKGLEWVANIREDGSEKYYVDSVKGRFTISRDNAKNSLYLQMNSLRAEDTAVYYCARDYYDILTDYYIHYWYFDLWGRGTLVTVSS
VL: not shown
notes: Captured by anti-human Fc
B7: 1129/773 (antibody, V domains shown)
VH: EVQLVESGGGLVQPGGSLRLSCAASGFTFSSYWMSWVRQAPGKGLEWVANIKQDGSEKYYVDSVKVRFTISRDNAKNSLYLQMNSLRAEDTAVYYCARDYYDILTDYYIHYWYFDLWGRGTLVTVSS
VL: not shown
notes: Captured by anti-human Fc
B8: 1134/773 (antibody, V domains shown)
VH: EVQLVESGGGLVQPGGSLRLSCAASGFTFSSYWMSWVRQTPGKGLEWVASIKQDGSEKYYVDSVKVRFTISRDNAKNSLYLQMNSLRAEDTAVYYCARDYYDILTDYYIHYWYFDLWGRGTLVTVSS
VL: not shown
notes: Captured by anti-human Fc
B9: 1137/773 (antibody, V domains shown)
VH: EVQLVESGGGLVQPGGSLRLSCAASGFTFSSYWMSWVRQTPGKGLEWVANIKQDGSEKYYVDSVKGRFTISRDNAKNSLYLQMNSLRAEDTAVYYCARDYYDILTDYYIHYWYFDLWGRGTLVTVSS
VL: not shown
notes: Captured by anti-human Fc
B10: 1139/773 (antibody, V domains shown)
VH: EVQLVESGGGLVQPGGSLRLSCAASGFTFSSHWMSWVRQTPGKGLEWVASIKEDGSEKYYVDSVKGRFTISRDNAKNSLYLQMNSLRAEDTAVYYCARDYYDILTDYYIHYWYFDLWGRGTLVTVSS
VL: not shown
notes: Captured by anti-human Fc
B11: 1142/773 (antibody, V domains shown)
VH: EVQLVESGGGLVQPGGSLRLSCAASGFTFSDYWMDWVRQAPGKGLEWVASIREDGSEKYYVGSVKGRFTISRDNAKNSLYLQMNSLRVEDTAVYYCVRDYYDILTDYYIHYWYFDLWGRGTLVTVSS
VL: not shown
notes: Captured by anti-human Fc
B12: 1143/773 (antibody, V domains shown)
VH: EVQLVESGGGLVQPGGSLRLSCAASGFTFSNHWMNWVRQAPGKGLEWVAGIREDGSEKYYVDSVKGRFTISRDNAKNSLYLQMNSLRAEDTAVYYCARDYYDILTDYYIHYWYFDLWGRGTLVTVSS
VL: not shown
notes: Captured by anti-human Fc
B13: 1144/773 (antibody, V domains shown)
VH: EVQLVESGGGLVQPGGSLRLSCAASGFTFSNHWMNWVRQAPGKGLEWVASIREDGSEKYYVDSVKGRFTISRDNAKNSLYLQMNSLRAEDTAVYYCARDYYDILTDYYIHYWYFDLWGRGTLVTVSS
VL: not shown
notes: Captured by anti-human Fc
B14: 1146/773 (antibody, V domains shown)
VH: EVQLVESGGGLVQPGGSLRLSCAASGFTFSNYWMDWVRQAPGKGLEWVASIREDGSEKYYVGSVKGRFTISRDNAKNSLYLQMNSLRVEDTAVYYCVRDYYDILTDYYIHYWYFDLWGRGTLVTVSS
VL: not shown
notes: Captured by anti-human Fc
B15: 1147/773 (antibody, V domains shown)
VH: EVQLVESGGGLVQPGGSLRLSCAASGFTFSSYWMDWVRQAPGKGLEWVASIREDGSEKYYVDSVKGRFTISRDNAKNSLYLQMNSLRAEDTAVYYCARDYYDILTDYYIHYWYFDLWGRGTLVTVSS
VL: not shown
notes: Captured by anti-human Fc
B16: 1153/773 (antibody, V domains shown)
VH: EVQLVESGGGLVQPGGSLRLSCAASGFTFSSHWMSWVRQAPGKGLEWVASIKEDGSEKYYVDSVKVRFTISRDNAKNSLYLQMNSLRAEDTAVYYCARDYYDILTDYYIHYWYFDLWGRGTLVTVSS
VL: not shown
notes: Captured by anti-human Fc
B17: MP4-2 (antibody, V domains shown)
VH: EVQLVESGGGLVQPGGSLRLSCAASGFTFSSYWMSWVRQAPGKGLEWVAAINQDGSEKYYVGSVKGRFTISRDNAKNSLYLQMNSLRAEDTAVYYCVRDYYDILTDYYIHYWYFDLWGRGTLVTVSS
VL: not shown
notes: Captured by anti-human Fc
B18: MP4-4 (antibody, V domains shown)
VH: EVQLVESGGGLVQPGGSLRLSCAASGFTFSNYWMNWVRQAPGKGLEWVAAIKQDGSEKYYVGSVKGRFTISRDNAKNSLYLQMNSLRAEDTAVYYCARDYYDILTDYYIHYWYFDLWGRGTLVTVSS
VL: not shown
notes: Captured by anti-human Fc
B19: MP4-5 (antibody, V domains shown)
VH: EVQLVESGGGLVQPGGSLRLSCAASGFTFSNYWMNWVRQAPGKGLEWVAAIKQDGSEKYYVGSVKGRFTISRDNAKNSLYLQMNSLRAEDTAVYYCVRDYYDILTDYYIHYWYFDLWGRGTLVTVSS
VL: not shown
notes: Captured by anti-human Fc
B20: MP4-6 (antibody, V domains shown)
VH: EVQLVESGGGLVQPGGSLRLSCAASGFTFSSYWMSWVRQAPGKGLEWVANINQDGSEKYYVGSVKGRFTISRDNAKNSLYLQMNSLRAEDTAVYYCVRDYYDILTDYYIHYWYFDLWGRGTLVTVSS
VL: not shown
notes: Captured by anti-human Fc
B21: MP4-7 (antibody, V domains shown)
VH: EVQLVESGGGLVQPGGSLRLSCAASGFTFSNYWMSWVRQAPGKGLEWVANINQDGSEKYYVGSVKGRFTISRDNAKNSLYLQMNSLRAEDTAVYYCVRDYYDILTDYYIHYWYFDLWGRGTLVTVSS
VL: not shown
notes: Captured by anti-human Fc
B22: MP4-8 (antibody, V domains shown)
VH: EVQLVESGGGLVQPGGSLRLSCAASGFTFSNYWMSWVRQAPGKGLEWVANINQDGSEKYYVDSVKGRFTISRDNAKNSLYLQMNSLRAEDTAVYYCVRDYYDILTDYYIHYWYFDLWGRGTLVTVSS
VL: not shown
notes: Captured by anti-human Fc
B23: MP4-10 (antibody, V domains shown)
VH: EVQLVESGGGLVQPGGSLRLSCAASGFTFSNYWMSWVRQAPGKGLEWVAAIKQDGSEKYYVGSVKGRFTISRDNAKNSLYLQMNSLRAEDTAVYYCVRDYYDILTDYYIHYWYFDLWGRGTLVTVSS
VL: not shown
notes: Captured by anti-human Fc

Target: T1, human IL-17 (human, UniProt Q16552 24-155)
T1 construct: also called hIL-17; IL-17A
Test: SPR (BIACORE), antibody captured by anti-human Fc, antigen in flow; grade: ++ strong binding, + binding, +/- close to background;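 note: antigen injected at two-fold dilutions from 50 nM over captured antibody at 30 µL/min, dissociation followed for 10 min, kinetics fitted with a 1:1 mass-transport model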
Excerpt: BIACORE T100™ is used to determine antibody-antigen binding kinetics and affinity. The technology is based on surface plasmon resonance (SPR), an optical phenomenon that enables detection of label-free interactions in real time within a dextran biosensor matrix. It is therefore suited for measuring rate constants of association (kₒₙ) as well as dissociation (koff). All reagents and materials were purchased from GE Healthcare (Buckinghamshire, United Kingdom). […] 1×HBS-EP+ buffer (of 0.01M HEPES, 0.15M NaCl, 3 mM EDTA, 0.05% Polysorbate, pH 7.6) was used to reconstitute antigen at various concentrations (starting at 50 nM and using two-fold serial dilutions for each concentration). 210 μL of each antigen concentration was injected over captured antibody at a flow rate of 30 μL/min, then allowed to dissociate for 10 minutes. Surface was regenerated with 60 μL of 3M MgCl₂ after each cycle to establish baseline. Association and dissociation kinetic constants (kₐ and kd) were evaluated with “1:1 with mass transport” binding model in the BIACORE™ T100 Evaluation Software. The degree of binding for the BIACORE™ assay was measured as “++” (strong binding), “+” (binding), or “+/−” (close to background).

T1 sequence (Q16552 24-155 limits assumed): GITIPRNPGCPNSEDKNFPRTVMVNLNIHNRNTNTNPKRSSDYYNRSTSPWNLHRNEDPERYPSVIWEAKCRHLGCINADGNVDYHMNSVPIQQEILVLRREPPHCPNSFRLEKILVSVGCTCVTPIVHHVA

Binding result, binds:
B1
B2
B3
B4
B5
B6
B7
B8
B9
B10
B11
B12
B13
B14
B15
B16
B17
B18
B19
B20
B21
B22
B23
